# Reference: the DeepSol protein solubility set
# Test: soluble on expression in E. coli; label from the status in PepcDB or PDB records
row,Sequence,soluble on expression in E. coli
1,DPDIQSTVEAMLLDRVDALPPKVSMAVLVMDNDSLEVKAYAGSADFTDDSRYAHVDMVRGVRSPGSTLKPFLYALALDEGLIHSESLLLDAPLSFGGYAPGNFQAAFAGPVSVAQALQRSLNVPAVDLLDRVGPARFASVMLAGGVHLRMPAGAVPNLSLILGGGGTTLEELVGAYRALARGGLSGRPRLRASQPRIEARLMSPGAAWIVRDILELGGHPDRPLFQGAAAGRQLAWKTGTSFGFRDAWAVGVTDRYTIGAWVGRPDGTPNPGFFGANVAAPLLQDIVAALPAGAPVPRT,not soluble
2,DPEDPAEDIIQTAGTIAHRGADRQDGGWGSGGPKFPQNGRLHALLRAYADGGQEDYLNVVEETLDVMADRGLYDHVGGGFHRYATDQQWAVPHFEKMLYDNAEIPRAFLAGYQAIGSERYASVVRETFEFVQRELQHPDGGFFSTLDAESAPHSESRSDSEQSSGESPRDDPDGETEEGLFYVWTPEQVHDAVDDETDADIFCDYYGVTEQGNFEGATVLAVRKPVPVLAEEYERSEDEITASLQRALNETFEARKDRPRPARDEKVLAGWNGLMIRALAEGAIVLDDQYADVAADALSFVREHLWDADAGRLNRRYKDDDVAIDGYLEDYAFLGRGALTLFEATGDVEHLAFAMDLGQAITEAFWDDEQGTLFFTPTGGESLVARPQELTD,not soluble
3,DQNAYHSIRTLLKSPTTLGEVKEHITHALTITPTKGSVINAFEHMWGYFKKQCTQYEKQHSRELKALYIENQIDYFELLSFLKNLADKYAVEYLQQSTILNITK,not soluble
4,DQVLKGAALVGHNVLVPSAQVAIDATGSAKGVVAATSAGFVNFEITDANGTFVKQLSVPASAAGEVSFAWDGTDANGNRMAAGKYGITATQTDTAGAKSKLATYVDAPVDSVTIGSDGLYLNLTGLGTSPLANVLRVS,soluble
5,DRWIRPRGAFGGLPSLKSSFVLSESTVPGTNETVKTFLPYGSVINYYGYVKPGQAPDGLVDGNKKAYYLYVWIPAVIAEMGVRMISPTGEIGEPGDGDLVSDAFKAATPEEKSMPHWFDTWIRVERMSAIMPDQIAKAAKAKPVQKLDDDDDGDDTYKEERHNKYNSLTRIKIPNPPKSFDDLKNIDTKKLLVRGLYRISFTTYKPGEVKGSFVASVGLLFPPGIPGVSPLIHSNPEELQKQAIAAEESLKKAASDATK,soluble
6,DSGYSRETRALLFRAYRHDPTFAYLFNAEREGYEQRVLATIRQLVKQHFLQNQPALGLFLEDRLVGVALIAPPLRRLGVTESWAWRLRMVMDTGLGCTQRYLAYYNAVLACLPSETVHVLPLIGLDPEFQGQKMGQDLSEQLLAALHDWCAVDENSQGIVVDTGNPRYLEFYKRQGYEEIGEIAVGPV,not soluble
7,DVQLQESGGGLVQAGGSLRLSCAASGATGSTYDMGWFRQAPGKERESVAAINWGSAGTYYASSVRGRFTISRDNAKKTVYLQMNSLKPEDTAVYTCGAGRIGRSVFNLRRESWVTWWGQGTQVTVSS,soluble
8,DVQLQQSGPELKKPGETVKLSCKASGYTFTNFGLNWMKQAPGKGLKWMGWINTYTGESTYADDFKGRFAFSLETSASTAYLQINNVKNEDTATYFCARGFYYYGSRYFYFDYWGQGTTLTVSSAKTTAPSVYPLAPVCGDTTGSSVTLGCLVKGYFPEPVTLTWNSGSLSSGVHTFPAVLQSDLYTLSSSVTVTSSTWPSQSITCNVAHPASSTKVDKKIEPRGP,soluble
9,EANLKPENVEIHIIDDNFFLKWNSSSESVKNVTFSADYQILGTDNWKKLSGCQHITSTKCNFSSVELENVFEKIELRIRAEEGNNTSTWYEVEPFVPFLEAQIGPPDVHLEAEDKAIILSISPPGTKDSIMWAMDRSSFRYSVVIWKNSSSLEERTETVYPEDKIYKLSPEITYCLKVKAELRLQSRVGCYSPVYCINTTERHKVPSPENIQINADNQIYVLKWDYPYENATFQAQWLRAFFKKIPGNHSDKWKQIPNCENVTSTHCVFPREVSSRGIYYVRVRASNGNGTSFWSEEKEFNTEMKTIIFPPVISVKSVTDDSLHVSVGASEESENMSVNQLYPLIYEVIFWENTSNAERKVLEKRTNFIFPDLKPLTVYCVKARALIENDRRNKGSSVSDTVCEKTKPGNTSK,not soluble
10,EDLDCTPGFQQKVFHINQPAEFIEDQSILNLTFSDCKGNDKLRYEVSSPYFKVNSDGGLVALRNITAVGKTLFVHARTPHAEDMAELVIVGGKDIQGSLQDIFKFARTSPVPRQKRSIVVSPILIPENQRQPFPRDVGKVVDSDRPERSKFRLTGKGVDQEPKGIFRINENTGSVSMTRTLDREVIAVYQLFVETTDVNGKTLEGPVPLEVIVIDQNDNRPIFREGPYIGHVMEGSPTGTTVMRMTAFDADDPATDNALLRYNIRRQTPDKPSPNMFYIDPEKGDIVTVVSPALLDRETLENPKYELIIEAQDMAGLDVGLTGTATATIMIDDKNDHSPKFTKKEFQATVEEGAVGVIVNLTVEDKDDPATGAWRAAYTIINGNPGQSFEIHTNPQTNEGMLSVVKPLDYEISAFHTLLIKVENEDPLVPDVSYGPSSTATVHITVLDVNEGPVFYPDPMMVTRQEDLSVGSVLLTVNATDPDSLQHQTIRYSVYKDPAGWLNINPINGTVDTTAVLDRESTFVDNSVYTALFLAIDSGNPPATGTGTLLITLEDVNDNAPFIYPTVAEVCDDAKNLSVVILGASDKDLHPNTDPFKFEIHKQAVPDKVWKISKINNTHALVSLLQNLNKANYNLPIMVTDSGKPPMTNITDLRVQVCSCRNSKVDCNAAGALRFSLPSVLLLSLFSLACL,soluble
11,EEIHLIAVNELLYVKAEDKYLSLYKVHGATTHEYLLRSSLKELLAQLDPNQFWQIHRSIVVNVGKIDKVTRDFGGKMWVHIDRLQLPVSRALQHLFKVS,not soluble
12,EHEICAGETGVPLATDTIMLSRQVSFDRIRLLSGVSNDELQLLNPQYKRGIIPGNTQLCRLRLPVASIKKLDKVRDSLYSPDLEASVSDFPEQGGQHSGGSGRTAIFHNVKQGETLLSIAKRYGTTVAAIKRANGLKSSSVKPGQRLQITKSSASGTKKKSKYSAKRKSRRRK,not soluble
13,EHNKRVNLANAGRVSSAEGIKKLRASGVKFVWVDQSLSAQQCVFKPVEEPIDIEVGDKTLSVSSKVQRAYRSREVQHKRAKKLIAEAKGLAQKLLNQTFEGKVIQVDEIESWADDMIESVFIDSDALQCVSALRQKDSYLLEHSVNVACLLVSFGKHLGLDKDTLKQLAIGGIIHDVGKIKVDDKILHKPARLTPEEFEHMKLHQVFAGEIIVEVKGLSDVSRDVCLMHHEKLDGTGYPRGLSGDEIPIHGRMSCIVDIYDALTADRCYKKGMSSAEAFKILLSLTPFHLDPDL,not soluble
14,EKLTLAEKVWRDHVVSKGENGEPDLLYIDLQLLHEVTSPQAFDGLRMTGRKLRHPELHLATEDHNVPTEGIKTGSLLEINDKISRLQVSTLRDNCEEFGVRLHPMGDVRQGIVHTVGPQLGATQPGMTIVCGDSHTSTHGAFGSMAFGIGTSEVEHVMATQTLPLKPFKT,not soluble
15,ELHAELVKRQHLETFLKTQIESELVDVYFQPIIETRTGNVVKFEALARFYHENSEYSTQEMISIIEDLELIAALDDVVCQTALKQWSHLQKIYGENIGLSINRSLNTKLDSLQVLQRSLDLIKASDVNPKLVTIELTETAYFEQDEEHAFALEQIRQEGIQIAIDDFGTGYSSFSYLEEGQFDVLKIDRKFVKNIHEGSTSYNIVKTITDLAHKLNVEVVAEGVESQRELEVLAGIGVDYMQGFLFSQA,not soluble
16,ELKDSYVDYTLLYDMIANRIGIEEAVVENGALRLMKNQVWAYDFLPHMLIAGGTGGGKTYFLLTIIEALLKSDAELFILDPKNADLADLGTIMTHVYSQKEQISACVEDFYERMMVRSRLMKEMPNYKTGENYAYLGLSPNFLVFDEYVAYMEMLTTKESAVILNKLKQIVMLGRQSGFFLILACQRPDA,not soluble
17,ELLPDVRLLYGETPFARTPVMYEPGIIILFSGHKIGYINERVFRYDANEYLLLTVPLPFECETYATSEVPLAGLRLNVDILQLQELLMDIGEDEHFQPSMAASGINSATLSEEILCAAERLLDVMERPLDARILGKQIIREILYYVLTGP,not soluble
18,ELTLRIAYNLFTQRPKEEYDDFARWITMTGPGKGSDVYKMNGAGEMLVFSAADFEDFLEPRPDLMPAMEEELKKVVALLVEHRWPFRLHATYDESISRFLAVFEAVDREIPFRGLRWFFDHAETISNRNLERVRRLGGGIAIQDRMAFQGEYFVARYGAEAAKRTPPIARMLAMGIPVGAGTDATRVSSYNPWLSLYWLVSGKTVGGLPLYDDANRLDRTAALRLYTEGSSWFSGDNGSKGALIAGRHADLAVLSADYFAVPEARIKDIESVLTIMGGKIVHASDEFAPLAPPLPPVSPDWSPVASYGGYHGNAAVSTGLRREPCVCHSHSPAWSGPDPRFWGIGCDCFA,not soluble
19,ENLMQVYQQARLSNPELRKSAADRDAAFEKINEARSPLLPQLGLGADYTYSNGYRDANGINSNATSASLQLTQSIFDMSKWRALTLQEKAAGIQDVTYQTDQQTLILNTATAYFNVLNAIDVLSYTQAQKEAIYRQLDQTTQRFNVGLVAITDVQNARAQYDTVLANELTARNNLDNAVEQLRQITGNYYPELAALNVENFKTDKPQPVNALLKEAEKRNLSLLQARLSQDLAREQIRQAQDGHLPTLDLTASTGISDTSYSGSKTRGAAGTQYDDSNMGQNKVGLSFSLPIYQGGMVNSQVKQAQYNFVGASEQLESAHRSVVQTVRSSFNNINASISSINAYKQAVVSAQSSLDAMEAGYSVGTRTIVDVLDATTTLYNAKQELANARYNYLINQLNIKSALGTLNEQDLLALNNALSKPVSTNPENVAPQTPEQNAIADGYAPDSPAPVVQQTSARTTTSNGHNPFRN,soluble
20,ENMLFTVVSLYISTKVLDFILEGYNPKKSVTIISDYYEEIATEIDANLERGITLFNGQGFYMRQDKKILYIVISRDQLLPLTKIVNKYDEKAFFIINDVQSVVGEGFTKQITSE,not soluble
21,EPDLDDWFENDREDLRHFVGIYVLAHYRNRPSDVALLADAPHHEARVLRLKNGKIVTAIQIAKEGGIPKAVIDKMAKGYKPPGNIIPDMMVKHHYAKEFARLKGYRVVRIATHPDAMDMGLGSKALELLIKEAEEKGLDWVGSGFGASPELIRFWVRNGFAVVHLSPTRNPVSGEYTAIVIKP,not soluble
22,EPNTPFGHTPPKGLPQDEAALDIEDAVHGALEGAGFVHYETSAFAKPAMQCRHNLNYWQFGDYLGIGAGAHGKISYPDRIERTVRRRHPNDYLALMQSQPSEAVERKTVAAEDLPFEFMMNALRLTDGVPAAMLQERTGVPSAKIMAQIETARQKGLLETDPAVFRPTEKGRLFLNDLLQCFL,not soluble
23,EPTNAPAALSRRFSVAPMMDWTDRHCRFFLRQLSRHTLLYTEMVTTGALLHGDRQRFLRYDECEHPLALQLGGSVPAELAACARLAEEAGYDEVNLNVGCPSDRVQHNMIGACLMGHPALVADCVKAMLDAVEIAVTVKHRIGINGRDSYAELCDFVGQVREAGCRSFTVHARIAILEGLSPKENREVPPLRYEVAAQLKKDFPDLEIVLNGGIKTLEACREHLQTFDGVMLGREAYHNPYLLAAVDSQLFGSEAPPLSRSEALLRLRPYIERHQAEGGAMHHVTRHILGLAQGFPGSRRFRQLLSVDVHKAADPLRVFDQA,not soluble
